This note sets out measurements from patent US20030091594A1 (University of Pennsylvania, published 2003).

Assay [1] deals with T1, HIV-1/IIIB (HXBc2) gp120 pre-incubated with soluble CD4 (HIV-1).
T1 construct: also called HXB/CD4; HIXB/CD4
As to the kind of experiment: cell-surface binding of 125I-gp120 with sCD4 to 293T cells transfected with CCR5.

The target in assay [2] is T1, HIV-1/IIIB (HXBc2) gp120 pre-incubated …. The assay is described as follows: 125I-gp120 binding to transfected 293T cells, with sCD4.

B1: human CCR5 (receptor)
chain: not shown
notes: whole, on cells
As to B1, in assay [1], the binding result is “no binding”.

B2: human CXCR4 (receptor)
chain: MEGISIYTSDNYTEEMGSGDYDSMKEPCFREENANFNKIFLPTIYSIIFLTGIVGNGLVILVMGYQKKLRSMTDKYRLHLSVADLLFVITLPFWAVDAVANWYFGNFLCKAVHVIYTVNLYSSVLILAFISLDRYLAIVHATNSQRPRKLLAEKVVYVGVWIPALLLTIPDFIFANVSEADDRYICDRFYPNDLWVVVFQFQHIMVGLILPGIVILSCYCIIISKLSHSKGHQKRKALKTTVILILAFFACWLPYYIGISIDSFILLEIIKQGCEFENTVHKWISITEALAFFHCCLNPILYAFLGAKFKTSAQHALTSVSRGSSLKILSKGKRGGHSSVSTESESSSFHSS
notes: whole, on cells
With B2, the binding result in assay [2] is “binds”.
